In experiment [1] the target is T1, biotinylated human TROP2 antigen (human, UniProt P09758 27-274, C-terminal Avi tag sequence biotinylated).
T1 construct: extracellular domain; Extracellular domain purified in house
T1 sequence (looked up): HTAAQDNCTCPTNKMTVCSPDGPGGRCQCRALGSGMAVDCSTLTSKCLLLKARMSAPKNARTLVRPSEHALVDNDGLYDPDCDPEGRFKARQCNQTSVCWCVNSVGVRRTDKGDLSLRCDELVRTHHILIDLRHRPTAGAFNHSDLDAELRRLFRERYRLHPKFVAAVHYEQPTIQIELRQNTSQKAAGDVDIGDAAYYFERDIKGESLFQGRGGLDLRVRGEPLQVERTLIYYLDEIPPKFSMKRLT
Put plainly: ELISA on human TROP2, scFv with or without MMP1 cleavage.
Experimental: (§1) The resultant was then added to the plate comprising the human TROP2 antigen immobilized thereon at 50 μl/well. The bound scFv was detected using the HRP-labeled anti-FLAG antibody (Sigma-Aldrich) diluted to 5,000-fold with ELISA buffer.
Thereafter, the antibody with the concentration thereof being adjusted with ELISA buffer was added to the wells.

The target of experiment [2] is T1, biotinylated human TROP2 antigen. As to the kind of experiment: ELISA, immobilised biotinylated human TROP2, anti-FLAG-HRP, chemiluminescence; scFv pre-incubated with MMP1.
Experimental: (§2) NeutrAvidin (Thermo Fisher Scientific) diluted to 1 μg/ml with PBS was added at 50 μl/well to a 96-well Maxi-sorp plate (Black, Nunc) and immobilized at 4° C. overnight. The plate was washed with PBS containing 0.05% (w/v) Tween-20 (BioRad) (ELISA buffer) and then blocked with Blocker Casein (Thermo Fisher Scientific). The plate was washed with ELISA buffer, the biotinylated human TROP2 antigen (Accession Number: P09758; the extracellular domain was purified by the method known to a person skilled in the art and the C-terminal Avi tag sequence was then biotinylated) diluted to 1 μg/ml with PBS was added at 50 μl/well, and the resultant was then agitated for 30 minutes at room temperature. […] The plate was washed with ELISA buffer, the SuperSignal Pico ELISA chemiluminescent substrate (Thermo Fisher Scientific) was added, and chemiluminescence 10 minutes thereafter was then assayed using a plate reader.
as §1
Experiment [3] shares this target. As to the kind of experiment: ELISA, immobilised biotinylated human TROP2, anti-FLAG-HRP, chemiluminescence; without MMP1.
Experimental: as §2, §1
In experiment [4] the target is T2, biotinylated human GPRC5D amino terminal peptide (human, K(Biotin) at the C-terminus; C-terminal amide (NH2)).
T2 construct: The last K carries the biotin and is an added residue as printed; also called human GPRC5D antigen; humanGPRC5D antigen
T2 peptide: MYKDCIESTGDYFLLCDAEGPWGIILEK
As to the kind of experiment: ELISA, immobilised biotinylated human GPRC5D amino terminal peptide, anti-human IgG-HRP, chemiluminescence.
Experimental: NeutrAvidin (Thermo Fisher Scientific) diluted to 1 μg/ml with PBS was added at 50 μl/well to a 96-well Maxi-sorp plate (Black, Nunc) and immobilized at 4° C. overnight. The plate was washed with PBS (ELISA buffer) containing 0.05 (w/v) % Tween-20 (BioRad) and then blocked with Blocker Casein (Thermo Fisher Scientific). The plate was washed with ELISA buffer, the biotinylated human GPRC5D amino terminal peptide ([sequence]-K(Biotin)-NH₂ (Peptide Institute, Inc.)) diluted to 1 μg/ml with PBS was added at 50 μl/well, and the resultant was agitated for 30 minutes at room temperature. The plate was washed with ELISA buffer, the MMP-buffered antibody was added at 50 μl/well, and the resultant was then agitated for 30 minutes at room temperature. The plate was washed with ELISA buffer, 50 μl of the horseradish peroxidase (HRP)-labeled anti-human IgG antibody (Jackson Immuno Research Laboratories) diluted to 2,500-fold with ELISA buffer was added, and the resultant was then agitated for 30 minutes at room temperature. The plate was washed with ELISA buffer, the SuperSignal Pico ELISA chemiluminescent substrate (Thermo Fisher Scientific) was added, and chemiluminescence 10 minutes thereafter was then assayed using a plate reader.

In experiment [5] the target is T1, biotinylated human TROP2 antigen. Put plainly: ELISA, immobilised biotinylated human TROP2, anti-FLAG-HRP, chemiluminescence; without MMP1. The source holds these as a separate data set.
Experimental: as §2, §1
For experiment [6] the target is unchanged. Put plainly: ELISA, immobilised biotinylated human TROP2, anti-FLAG-HRP, chemiluminescence; scFv pre-incubated with MMP1. This is another data set of the same source.
Experimental: as §2, §1
The target is the same in experiment [7]. As to the kind of experiment: ELISA, immobilised biotinylated human TROP2, anti-FLAG-HRP, chemiluminescence; without MMP1. The source holds these as a separate data set.
Experimental: as §2, §1
Experiment [8] shares this target. Put plainly: ELISA, immobilised biotinylated human TROP2, anti-FLAG-HRP, chemiluminescence; scFv pre-incubated with MMP1. The source holds these as a separate data set.
Experimental: as §2, §1
The target is the same in experiment [9]. Described as above. This is another data set of the same source.
Experimental: as §2, §1
Experiment [10] has the same target. Put plainly: ELISA, immobilised biotinylated human TROP2, anti-human IgG-HRP, chemiluminescence; without MMP1.
Experimental: (§3) NeutrAvidin (Thermo Fisher Scientific) diluted to 1 μg/ml with PBS was added at 50 μl/well to a 96-well Maxi-sorp plate (Black, Nunc) and immobilized at 4° C. overnight. The plate was washed with PBS containing 0.05% (w/v) Tween-20 (BioRad) (ELISA buffer) and then blocked with Blocker Casein (Thermo Fisher Scientific). The plate was washed with ELISA buffer, the biotinylated human TROP2 antigen (Accession Number: P09758; the extracellular domain was purified by the method known to a person skilled in the art and the C-terminal Avi tag sequence was then biotinylated) diluted to 1 μg/ml with PBS was added at 50 μl/well, and the resultant was then agitated for 30 minutes at room temperature. […] The plate was washed with ELISA buffer, 50 μl of the horseradish peroxidase (HRP)-labeled anti-human IgG antibody (Jackson Immuno Research Laboratories) diluted to 2,500-fold with ELISA buffer was added, and the resultant was then agitated for 30 minutes at room temperature. The plate was washed with ELISA buffer, the SuperSignal Pico ELISA chemiluminescent substrate (Thermo Fisher Scientific) was added, and chemiluminescence 10 minutes thereafter was then assayed using a plate reader.
For experiment [11] the target is unchanged. As to the kind of experiment: ELISA, immobilised biotinylated human TROP2, anti-human IgG-HRP, chemiluminescence; antibody pre-incubated with MMP1.
Experimental: as §3
The target is the same in experiment [12]. Put plainly: ELISA, immobilised biotinylated human TROP2, anti-human IgG-HRP, chemiluminescence.
Experimental: as §3
Experiment [13] shares this target. Put plainly: ELISA, immobilised biotinylated human TROP2, anti-human IgG-HRP, chemiluminescence; antibody pre-incubated with uPA.
Experimental: as §3
For experiment [14] the target is unchanged. Put plainly: ELISA, immobilised biotinylated human TROP2, anti-human IgG-HRP, chemiluminescence; without uPA.
Experimental: as §3
Experiment [15] shares this target. As to the kind of experiment: ELISA on human TROP2, antibody with or without uPA cleavage.
Experimental: as §3
The target is the same in experiment [16]. Put plainly: ELISA, immobilised biotinylated human TROP2, anti-human IgG-HRP, chemiluminescence; without MMP1. The source holds these as a separate data set.
Experimental: as §3
Experiment [17] shares this target. Put plainly: ELISA, immobilised biotinylated human TROP2, anti-human IgG-HRP, chemiluminescence; antibody pre-incubated with MMP1. This is another data set of the same source.
Experimental: as §3
Experiment [18] has the same target. As to the kind of experiment: ELISA on human TROP2, antibody with or without MMP1 cleavage.
Experimental: as §3

B1: MHT1002 (scFv)
scFv: AMGYLALKHPWPGLAENSGSGGGGSVLVPMAMMASGGSDVNSDIQMTQSPSSLSASVGDRVTITCKASQDVSTAVAWYQQKPGKAPKLLIYSASYRYTGVPSRFSGSGSGTDFTLTISSLQPEDFAVYYCQQHYITPLTFGQGTKLEIKRGGGGSGGGGSGGGGSQVQLVQSGAEVKKPGASVKVSCKASGYTFTTAGMQWVRQAPGQGLEWMGWINTHSGVPKYAEDFKGRVTISADTSTSTAYLQLSSLKSEDTAVYYCARSGFGSSYWYFDVWGQGTLVTVSSGAPSGDYKDDDDKGAAAHHHHHH
notes: Mimotope peptide, MMP cleavable linker, HT1-11 scFv, FLAG tag, His tag; also called positive clone MHT1002
With B1, in experiment [1], the “EC50 ratio of binding (under the condition without the addition of MMP1/under the condition with the addition of MMP1)” value came to 4.3. In addition, the results for the “EC50 (read off the curve)” value in experiment [2] and in experiment [3] were roughly 3 nM and 10 to 20 nM, respectively.

B2: anti-GPRC5D antibody C3022 (antibody, V domains shown)
VH: QVQLVQSGAEVKKPGASVKVSCKASGYTFTGYYMHWVRQAPGQGLEWMGRINPNSGGTNYAQKFQGRVTMTRDTSISTAYMELSGLRSDDTAVYYCASGSVRHPWGQGTLVTVSS
VL: QPVLTQPPSASGTPGQRVTISCSGSRSNIGGNIVSWYQQFPGTAPRLLTYADNQRPSGVPDRFSGSKSGTSASLAISGLQSEDEADYYCAAWDDSLNGVVFGGGTKLTVLG
notes: Known antibody of WO 2018/147245
For B2, in experiment [4], the “EC50 (read off the curve)” value is roughly 0.3 nM.

B3: HT1-11-scFv-LH (scFv)
scFv: ADVNSDIQMTQSPSSLSASVGDRVTITCKASQDVSTAVAWYQQKPGKAPKLLIYSASYRYTGVPSRFSGSGSGTDFTLTISSLQPEDFAVYYCQQHYITPLTFGQGTKLEIKRGGGGSGGGGSGGGGSQVQLVQSGAEVKKPGASVKVSCKASGYTFTTAGMQWVRQAPGQGLEWMGWINTHSGVPKYAEDFKGRVTISADTSTSTAYLQLSSLKSEDTAVYYCARSGFGSSYWYFDVWGQGTLVTVSSGAPSGDYKDDDDKGAAAHHHHHH
notes: No mimotope fused; expressed in E. coli, purified on Ni Sepharose; also called scFv-type anti-TROP2 antibody
As to B3, the “EC50 (read off the curve)” value in experiment [5] and in [6] was roughly 3 nM each time.

B4: HT1-11-scFv-HL (scFv)
scFv: ADVNSQVQLVQSGAEVKKPGASVKVSCKASGYTFTTAGMQWVRQAPGQGLEWMGWINTHSGVPKYAEDFKGRVTISADTSTSTAYLQLSSLKSEDTAVYYCARSGFGSSYWYFDVWGQGTLVTVSSGGGGSGGGGSGGGGSDIQMTQSPSSLSASVGDRVTITCKASQDVSTAVAWYQQKPGKAPKLLIYSASYRYTGVPSRFSGSGSGTDFTLTISSLQPEDFAVYYCQQHYITPLTFGQGTKLEIKRGAPSGDYKDDDDKGAAAHHHHHH
notes: as for B3
In the case of B4, the “EC50 (read off the curve)” value in experiment [7] is roughly 5 nM; in experiment [8] it was roughly 4 nM.

B5: MHT1001 (scFv)
scFv: AMGYLALKHPWPGLAENSGSGGGGSVLVPMAMMASGGSDVNSQVQLVQSGAEVKKPGASVKVSCKASGYTFTTAGMQWVRQAPGQGLEWMGWINTHSGVPKYAEDFKGRVTISADTSTSTAYLQLSSLKSEDTAVYYCARSGFGSSYWYFDVWGQGTLVTVSSGGGGSGGGGSGGGGSDIQMTQSPSSLSASVGDRVTITCKASQDVSTAVAWYQQKPGKAPKLLIYSASYRYTGVPSRFSGSGSGTDFTLTISSLQPEDFAVYYCQQHYITPLTFGQGTKLEIKRGAPSGDYKDDDDKGAAAHHHHHH
notes: also called positive clone MHT1001
For the molecule B5, the “EC50 ratio of binding (under the condition without the addition of MMP1/under the condition with the addition of MMP1)” value in experiment [1] came to 7.9. For the same molecule, in experiment [9], the “EC50 (read off the curve)” value is roughly 8 nM.

B6: anti-TROP2 antibody HT1-11 (antibody)
heavy: not shown
light: DIQMTQSPSSLSASVGDRVTITCKASQDVSTAVAWYQQKPGKAPKLLIYSASYRYTGVPSRFSGSGSGTDFTLTISSLQPEDFAVYYCQQHYITPLTFGQGTKLEIKRTVAAPSVFIFPPSDEQLKSGTASVVCLLNNFYPREAKVQWKVDNALQSGNSQESVTEQDSKDSTYSLSSTLTLSKADYEKHKVYACEVTHQGLSSPVTKSFNRGEC
notes: Known antibody of WO 2015/098099; Entries are called full-length
With B6, the “EC50 (read off the curve)” value in [10] is roughly 0.5 nM; in experiment [11] it was roughly 0.5 nM; in [12] it was roughly 0.6 nM.

B7: anti-TROP2 masked antibody MHT1009 (antibody)
heavy: not shown
light: DIQMTQSPSSLSASVGDRVTITCKASQDVSTAVAWYQQKPGKAPKLLIYSASYRYTGVPSRFSGSGSGTDFTLTISSLQPEDFAVYYCQQHYITPLTFGQGTKLEIKRTVAAPSVFIFPPSDEQLKSGTASVVCLLNNFYPREAKVQWKVDNALQSGNSQESVTEQDSKDSTYSLSSTLTLSKADYEKHKVYACEVTHQGLSSPVTKSFNRGEC
notes: IgG-type
As for B7, the “EC50 (read off the curve)” value in experiment [13] was roughly 1 nM; in experiment [14] it was roughly 90 nM. Also, the “EC50 ratio of binding (under the condition without the addition of uPA/under the condition with the addition of uPA)” value in experiment [15] is 83.

B8: anti-TROP2 masked antibody MHT1007 (antibody)
heavy: not shown
light: DIQMTQSPSSLSASVGDRVTITCKASQDVSTAVAWYQQKPGKAPKLLIYSASYRYTGVPSRFSGSGSGTDFTLTISSLQPEDFAVYYCQQHYITPLTFGQGTKLEIKRTVAAPSVFIFPPSDEQLKSGTASVVCLLNNFYPREAKVQWKVDNALQSGNSQESVTEQDSKDSTYSLSSTLTLSKADYEKHKVYACEVTHQGLSSPVTKSFNRGEC
notes: IgG-type; MHT1001 mimotope and MMP cleavable linker fused to the heavy chain
Turning to B8, the “EC50 (read off the curve)” value in experiment [16] is roughly 30 nM; in experiment [17], roughly 0.3 nM. Also, in [18], the “EC50 ratio of binding (under the condition without the addition of MMP1/under the condition with the addition of MMP1)” value came out at 104.

These data come from US20250034274A1 (Daiichi Sankyo, published 2025).
